The values below come from PMC7612645.

The target of data set [1] is HBV core protein (Cp) dimer (Hepatitis B virus) (UniProt P03146). In words: fluorescence anisotropy. As to conditions: 20 mM HEPES pH 7.5, 250 mM NaCl, 5 mM DTT, DMSO +/- compound, <0.15 M GuHCl, room temperature; Cp titrated in 10 steps to 1.2 uM; scale: normalized anisotropy change vs no compound.
The target is the same in data set [2]. In words: NCP reassembly, SEC-MALLS with RNase A challenge. As to conditions: 20 mM HEPES pH 7.5, 250 mM NaCl, 5 mM DTT, DMSO +/- compound, <0.15 M GuHCl, room temperature; Cp titrated in 10 steps to 1.2 uM.

HBV core protein (Cp) dimer (Hepatitis B virus), sequence (P03146 whole entry): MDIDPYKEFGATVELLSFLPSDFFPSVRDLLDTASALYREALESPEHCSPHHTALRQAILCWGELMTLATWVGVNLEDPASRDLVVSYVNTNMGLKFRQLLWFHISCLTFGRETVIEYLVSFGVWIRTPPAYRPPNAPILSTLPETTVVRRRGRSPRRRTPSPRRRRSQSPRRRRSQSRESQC

Regarding HBV gRNA transcript, dye-labelled, in data set [1], the binding signal was 0.477.
With HBV gRNA transcript, the binding signal (% NCP yield vs control) in data set [2] stood at 90.
